According to patent US20240270821A1, “GIP/GLP1/GCG TRI-RECEPTOR AGONISTS AND USES THEREOF” (priority 2023, published 2024):

T1: human GIP receptor (human) (UniProt P48546)
T1 sequence (looked up): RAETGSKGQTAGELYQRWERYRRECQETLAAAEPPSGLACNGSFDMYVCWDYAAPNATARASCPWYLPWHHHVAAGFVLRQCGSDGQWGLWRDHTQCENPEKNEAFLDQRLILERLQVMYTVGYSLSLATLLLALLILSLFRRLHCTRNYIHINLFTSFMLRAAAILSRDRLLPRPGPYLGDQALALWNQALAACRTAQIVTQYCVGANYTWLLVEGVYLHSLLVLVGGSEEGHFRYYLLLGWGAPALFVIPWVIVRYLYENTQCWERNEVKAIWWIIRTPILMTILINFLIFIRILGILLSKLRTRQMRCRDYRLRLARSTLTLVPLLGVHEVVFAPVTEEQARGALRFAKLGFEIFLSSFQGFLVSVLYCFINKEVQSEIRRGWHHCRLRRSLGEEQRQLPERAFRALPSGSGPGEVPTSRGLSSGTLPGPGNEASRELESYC

B1: Example 29 (peptide)
chain: YXQGTFTSDFSXXLDKKAQXAFIEYLLAGGPSSGEPPPSEG
modifications: Aib, Orn, alpha-methyl-Leu, acylated Lys, C-terminal amide; synthetic construct; SITE 2: note = 2-Aminoisobutyric Acid; SITE 12: note = L-ornithine; SITE 13: note = alpha-methyl-leucine; SITE 17: note = Lysine is chemically modified through conjugation of the epsilon-amino group of the Lysine side chain with (2-[2-(2-Amino-ethoxy)-ethoxy]-acetyl)-(gamma-Glu)
B2: Example 279 (peptide)
chain: YXQGTFTSDFSXXLDKKAQXAFIEYLLEXGPSSGAPPPSGX
modifications: synthetic construct; SITE 2: note = 2-Aminoisobutyric Acid; SITE 12: note = L-ornithine; SITE 13: note = alpha-methyl-leucine; SITE 17: note = Lysine is chemically modified through conjugation of the epsilon-amino group of the Lysine side chain with (2-[2-(2-Amino-ethoxy)-ethoxy]-acetyl)-(gamma-Glu)
B3: Example 255 (peptide)
chain: YXQGTFTSDFSXXLDKKAQXAFIEYLLEAGPSSGHPPPSGH
modifications: synthetic construct; SITE 2: note = 2-Aminoisobutyric Acid; SITE 12: note = L-ornithine; SITE 13: note = alpha-methyl-leucine; SITE 17: note = Lysine is chemically modified through conjugation of the epsilon-amino group of the Lysine side chain with (2-[2-(2-Amino-ethoxy)-ethoxy]-acetyl)2-(gamma-Glu)
B4: Example 278 (peptide)
chain: YXQGTFTSDFSXXLDKKAQXAFIEYLLEXGPSSGAPPPSGT
modifications: synthetic construct; SITE 2: note = 2-Aminoisobutyric Acid; SITE 12: note = L-ornithine; SITE 13: note = alpha-methyl-leucine; SITE 17: note = Lysine is chemically modified through conjugation of the epsilon-amino group of the Lysine side chain with (2-[2-(2-Amino-ethoxy)-ethoxy]-acetyl)-(gamma-Glu)
B5: Example 44 (peptide)
chain: YXQGTFTSDFSKXLDKKAQXAFIEYLLEXGPSSGAPPPSSG
modifications: acylated Lys; Aib, αMeL non-natural; C-terminal amide; synthetic construct; SITE 2: note = 2-Aminoisobutyric Acid; SITE 13: note = alpha-methyl-leucine; SITE 17: note = Lysine is chemically modified through conjugation of the epsilon-amino group of the Lysine side chain with (2-[2-(2-Amino-ethoxy)-ethoxy]-acetyl)-(gamma-Glu)-CO-(CH2) 18-CO2H; SITE 20: n
B6: Example 276 (peptide)
chain: YXQGTFTSDFSXXLDKKAQXAFIEYLLEXGPSSGAPPPSGT
modifications: synthetic construct; SITE 2: note = 2-Aminoisobutyric Acid; SITE 12: note = L-ornithine; SITE 13: note = alpha-methyl-leucine; SITE 17: note = Lysine is chemically modified through conjugation of the epsilon-amino group of the Lysine side chain with (gamma-Glu)-(2-[2-(2-Amino-ethoxy)-ethoxy]-acetyl)
B7: Example 31 (peptide)
chain: YXQGTFTSDFSKXLDKKAQXAFIEYLLAGGPSSGEPPPGEG
modifications: Lys acylated; non-natural residues; C-amide; synthetic construct; SITE 2: note = 2-Aminoisobutyric Acid; SITE 13: note = alpha-methyl-leucine; SITE 17: note = Lysine is chemically modified through conjugation of the epsilon-amino group of the Lysine side chain with (2-[2-(2-Amino-ethoxy)-ethoxy]-acetyl)-(gamma-Glu)-CO-(CH2) 18-CO2H; SITE 20: n
B8: Example 86 (peptide)
chain: YXQGTFTSDFSXXLDKKAQXAFIEYLLAGGPSSGAPPPSGE
modifications: synthetic construct; SITE 2: note = 2-Aminoisobutyric Acid; SITE 12: note = L-ornithine; SITE 13: note = alpha-methyl-leucine; SITE 17: note = Lysine is chemically modified through conjugation of the epsilon-amino group of the Lysine side chain with (2-[2-(2-Amino-ethoxy)-ethoxy]-acetyl)-(gamma-Glu)
B9: Example 74 (peptide)
chain: YXQGTFTSDFSXXLDKKAQXAFIEYLLEXGPSSGAPPPSGS
modifications: synthetic construct; SITE 2: note = 2-Aminoisobutyric Acid; SITE 12: note = L-ornithine; SITE 13: note = alpha-methyl-leucine; SITE 17: note = Lysine is chemically modified through conjugation of the epsilon-amino group of the Lysine side chain with (2-[2-(2-Amino-ethoxy)-ethoxy]-acetyl)-(gamma-Glu)
B10: Example 256 (peptide)
chain: YXQGTFTSDFSXXLDKKAQXAFIEYLLEAGPSSGHPPPSGX
modifications: synthetic construct; SITE 2: note = 2-Aminoisobutyric Acid; SITE 12: note = L-ornithine; SITE 13: note = alpha-methyl-leucine; SITE 17: note = Lysine is chemically modified through conjugation of the epsilon-amino group of the Lysine side chain with (2-[2-(2-Amino-ethoxy)-ethoxy]-acetyl)2-(gamma-Glu)
B11: Example 37 (peptide)
chain: YXQGTFTSDFSKXLDKKAQXAFIEWLLEGGPSSGAPPPSEG
modifications: Aib, αMeL; K acylated; C-terminal amide; synthetic construct; SITE 2: note = 2-Aminoisobutyric Acid; SITE 13: note = alpha-methyl-leucine; SITE 17: note = Lysine is chemically modified through conjugation of the epsilon-amino group of the Lysine side chain with (2-[2-(2-Amino-ethoxy)-ethoxy]-acetyl)-(gamma-Glu)-CO-(CH2) 18-CO2H; SITE 20: n
B12: Example 85 (peptide)
chain: YXQGTFTSDFSXXLDKKAQXAFIEYLLAGGPSSGAPPPSGD
modifications: synthetic construct; SITE 2: note = 2-Aminoisobutyric Acid; SITE 12: note = L-ornithine; SITE 13: note = alpha-methyl-leucine; SITE 17: note = Lysine is chemically modified through conjugation of the epsilon-amino group of the Lysine side chain with (2-[2-(2-Amino-ethoxy)-ethoxy]-acetyl)-(gamma-Glu)

Assays:
Test in all cases: cell-based or functional assay
[1] = biological target: T1, human GIP receptor (human)
[2] = biological target: human GLP1-R (SNAP-GLP-1R expressed in HEK293 cells) (human) (UniProt P43220)
Chain of human GLP1-R (SNAP-GLP-1R expressed in HEK293 cells) (human) (P43220 24-463): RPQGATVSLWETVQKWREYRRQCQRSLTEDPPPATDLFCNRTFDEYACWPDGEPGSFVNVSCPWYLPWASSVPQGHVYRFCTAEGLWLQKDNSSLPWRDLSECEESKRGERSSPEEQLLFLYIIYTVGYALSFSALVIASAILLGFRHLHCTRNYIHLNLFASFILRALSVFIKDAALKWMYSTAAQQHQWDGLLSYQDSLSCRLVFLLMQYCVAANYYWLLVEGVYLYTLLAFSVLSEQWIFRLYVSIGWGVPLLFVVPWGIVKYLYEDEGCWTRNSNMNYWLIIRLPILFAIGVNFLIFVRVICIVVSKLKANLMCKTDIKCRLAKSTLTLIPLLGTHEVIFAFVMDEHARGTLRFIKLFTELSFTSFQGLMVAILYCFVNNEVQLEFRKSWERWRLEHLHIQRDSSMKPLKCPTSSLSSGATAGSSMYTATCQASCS

hGLP-1R = hGLP-1R (Homo sapiens, UniProt P43220)
Chain of hGLP-1R (P43220 24-463): as above

[3] = biological target: human glucagon receptor (human) (UniProt P47871)
Chain of human glucagon receptor (human) (P47871 26-477): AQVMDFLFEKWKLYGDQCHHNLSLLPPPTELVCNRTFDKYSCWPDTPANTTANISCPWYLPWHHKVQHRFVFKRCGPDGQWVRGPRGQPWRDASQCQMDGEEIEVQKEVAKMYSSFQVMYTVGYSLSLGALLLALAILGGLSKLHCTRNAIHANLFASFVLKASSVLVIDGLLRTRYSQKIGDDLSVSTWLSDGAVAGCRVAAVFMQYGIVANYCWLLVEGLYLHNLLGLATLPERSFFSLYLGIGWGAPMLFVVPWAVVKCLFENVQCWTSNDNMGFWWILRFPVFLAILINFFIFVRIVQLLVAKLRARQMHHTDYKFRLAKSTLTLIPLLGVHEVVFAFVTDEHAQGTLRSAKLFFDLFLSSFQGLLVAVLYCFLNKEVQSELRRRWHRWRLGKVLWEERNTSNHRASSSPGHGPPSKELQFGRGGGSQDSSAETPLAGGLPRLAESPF

[4] = biological target: human GLP-1R (SNAP-GLP-1R expressed in HEK293 cells) (human) (UniProt P43220)
Chain of human GLP-1R (SNAP-GLP-1R expressed in HEK293 cells) (human) (P43220 24-463): as the sequence (P43220 24-463) above

Binder	Relative cAMP EC50 [1] [nM]	cAMP Rel EC50 (in the presence of 1% HSA) [1] [nM]	GLP1R Internalization EC50 [2] [nM]	Internalization % TOP [2] [%]	Relative cAMP EC50 (hGLP-1R) [nM]	cAMP Rel EC50 (in the presence of 1% HSA) (hGLP-1R) [nM]	Relative cAMP EC50 [3] [nM]	cAMP Rel EC50 (in the presence of 1% HSA) [3] [nM]	GLP1R Internalization EC50 [4] [nM]	Internalization % TOP [4] [%]
B1	0.35	70.1	129	57	3.56	493	11.1	1350		
B2	0.105	11.6			5.77	367	5.06	427	115	37.5
B3	0.107	21.9			1.9	272	5.48	883	47.1	51.8
B4	0.0963	7.69			4.11	241	4.45	274	251	68.6
B5	0.116	35.9	51.5	65	1.66	591	2.46	1050		
B6	0.0708	6.28			2.61	103	2.82	113	237	68.4
B7	0.249	63.6	91.9	67.4	2.16	737	8.42	1750		
B8			57.8	52.5						
B9			72.7	53.3						
B10	0.176	17.4			2.87	235	5.71	625	87.8	43.5
B11	0.207	56.4	51.6	68.3	1.66	514	6.83	1870		
B12			326	48.3						
